Amyloid nucleation score data for 130 substances are collected here from the supplement of paper PMC12042874.

A short description of the data set: amyloid nucleation score (Sup35N fusion, yeast selection) (log enrichment); library NNK3; higher = more nucleation; inactive = no reads after selection. In outline:
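The nucleation score, computed with DiMSum, is the log enrichment of output over input reads, centred on the mode score of non-aggregating sequences. Sequences with under 100 input reads were dropped. Reads were generated by Illumina sequencing of plasmid inserts from psi-negative yeast with Sup35N fused to peptides of 20 random codons, induced with 100 μM copper sulfate for 24 hours and grown 7 days at 30°C on medium lacking adenine and uracil.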

± gives the uncertainty stated by the source.

For MILNWARQRGIECMAYSRVW, the amyloid nucleation score result is “inactive”.
The entry for HKIWVVQQWGRRRQQ is “inactive”.
The entry for LSLFSRSASFSSSLHMAMYH is “inactive”; for FTLLVMS it is “inactive”.
For KRWIAHASWSSTGTWFWSGG the value was “inactive”; for DQGLLRLMDTWLCMGVRQPS, “inactive”; for TVEKTWKTVYIYKDSVTLRN, 1.33 ± 0.12.
In the case of GQCVLCMVNVLYLWAKYTNR, the amyloid nucleation score entry is “inactive”.
The entry for RGRRSCRARRYTTGAFHELL is “inactive”.
Turning to FVHDFTFEGKSMVVRLNCSA, the amyloid nucleation score entry was “inactive”.
On to MYGLHLNPALITVYFRGKGL, for which the amyloid nucleation score is -0.018 ± 0.34.
For IGAWHVLITGCTFQEIPR the value was 1.88 ± 0.064; for IYYPHTFIWDFVDEGVAPHY, 1.56 ± 0.12.
The entry for SCVLTFGFLILLRVPSYSRI is “inactive”.
The entry for RASFLSFCFSMAGFSLFDIK is “inactive”.
For FMSFSRGCTWSLGWA, the amyloid nucleation score result was “inactive”.
The entry for VNLPFNDKYHLVFIGMA is “inactive”; for APRGVSTDLDAVHRWYYSGR it is -0.025 ± 0.88.
The figure for ITICVSIF is 1.75 ± 0.072; for VYGWMVVHVGRLWTWLHRLL it is “inactive”; for AREYDWQDYILVSVMYTLVW it is “inactive”.
For NYIWLFVLYAIVRFSHWLDF the value was 0.779 ± 0.14; for YFILLGSAGRCAPMM, 0.71 ± 0.23; for ETRMGTK, “inactive”.
For the substance VMLHSRFGRFRDNVTL, the amyloid nucleation score result is “inactive”.
The entry for AYETFGNCRLVASVIIDGIS is “inactive”.
Consider NTFWLGVRIDGVFGWATNLP, for which the amyloid nucleation score entry is “inactive”.
Substance TCQRRYKKFS displayed an amyloid nucleation score of -0.633 ± 0.52.
For FNFCCLSKQGAFFMGTYCCP the value was 0.341 ± 0.6; for SSFYFCFMSCCYGLGFYLEI, “inactive”.
Take NSWIMYRGGKDDDFVVPWAA: the amyloid nucleation score entry was “inactive”.
For SSNLYMSSFWTSMMTWPTNY the value was “inactive”.
The entry for SRYSYVYTSESLYRASVSSV is “inactive”.
For VMLRTFSA the value was “inactive”; for SFKTF, “inactive”.
In the case of RSPYNFCKALRMGWVTNKIS, the amyloid nucleation score result is “inactive”.
For EIWSDKCSTRSMLHPAYIMY the value was “inactive”; for GILIFTGYEDIFSCESDGSW, “inactive”; for YHYQDNMS, “inactive”.
As to LKIAQHRGSVFNGDKK, the amyloid nucleation score result was “inactive”.
With ELNWWHLLVICCVYYFMVLF, the amyloid nucleation score result was “inactive”.
On to SIAIHWTLICGLYLSNSSRA, for which the amyloid nucleation score entry was “inactive”.
The entry for KQSMRQSYSVPPEEVDKQGR is “inactive”.
The entry for SSSYFIALWYFRTTRLSGGL is “inactive”; for RTSRT it is “inactive”.
For GCWNVMRRCVLLILPESYLV the value was “inactive”; for FIIHHGVYYHAMFMDMLLLM, “inactive”; for SRPAYSRRFMLTGDITVIKL, 1.66 ± 0.071.
Regarding HIRSSDHGGSLTGLTCRDTD, the amyloid nucleation score entry is “inactive”.
For WYVFPCRDLVDMCCSGRCAV the value was “inactive”; for VLYVTKGVIFRCGCYNVGED, 1.7 ± 0.11.
The entry for EFYGVVSRVPYERTPGTKVE is “inactive”; for NISWVAFMIVLHLDRLNMF it is “inactive”; for DITRMVNNKFIWSSVSGLAC it is “inactive”.
With HVIKNFSADISIDDFFYLGM, the amyloid nucleation score result is “inactive”.
LLQFLMFARNSMIKVVRSMV: the amyloid nucleation score entry is “inactive”.
Regarding RGPSAPNFWE, the amyloid nucleation score entry was “inactive”.
As for YVLMGAYASVL, the amyloid nucleation score entry was “inactive”.
The entry for YVGFRAQHTNEDDGTTVCRP is “inactive”; for LMIVLKLP it is “inactive”.
The entry for SVIMGLTGDPGVALYVVTIM is “inactive”; for FGAVVDYNFSN it is -0.695 ± 0.96.
For NYGAN the value was “inactive”.
Consider RAVRARFSKTTVFDWYAISG, for which the amyloid nucleation score entry was “inactive”.
The entry for ARSNRCSM is “inactive”; for SIWKISTRMQTFFCRNM it is 1.46 ± 0.1.
LVDAVHLCSNVNYTFCTNAG showed an amyloid nucleation score of 1.3 ± 0.074.
For YCQIK the value was “inactive”; for SKHIIFSFIGDLI, 0.654 ± 0.11; for SIIRNKFVAMNMNSVNM, 0.831 ± 0.095.
As to GKWGWLIASWREFTS, the amyloid nucleation score result is “inactive”.
For the substance NFCFDSPLIFPDCQLG, the amyloid nucleation score entry is “inactive”.
KSDEVTFMWHSHGIRMFR: the amyloid nucleation score turned out to be 0.357 ± 0.4.
For QAIQPSMQGLWQRALTSRSP the value was “inactive”; for YFVIIYWLAPHHSNLLISFP, “inactive”; for EPDFEHIVCAFMGSTTGYYW, “inactive”.
Consider HSCCDEWRDNGEIGNSSNRE, for which the amyloid nucleation score result is “inactive”.
Take GLHIRFQNYLRQGQ: the amyloid nucleation score was found to be 1.22 ± 0.17.
For SDLFVSVFM the value was “inactive”; for TLSGLVWWCVVFAMAT, “inactive”.
For YYAPVCYLSTKQGKARRPPP, the amyloid nucleation score result is “inactive”.
In the case of TVHAYLFCGTAVMTVRSSVV, the amyloid nucleation score result was “inactive”.
For CRENKEYIQGSDTLNFHYPM the value was “inactive”; for SVARWSENGSTKSQYSP, “inactive”.
As to FFISVLFWNPGISFRITIAA, the amyloid nucleation score entry is “inactive”.
The entry for TYSGRIKLFLCWMLILSNGT is “inactive”; for RREYVVGNSFFYNY it is 1.19 ± 0.093; for CVGYMGLGALEYIVNAHGGI it is “inactive”.
For YLRMLVDELKITHHH the value was “inactive”.
Turning to VNPISWGHVIVTYQN, the amyloid nucleation score result is “inactive”.
The entry for IRGYFIPCGETLDEDLLFKQ is “inactive”; for TTCILYPYLWCLMIHMSASN it is 0.891 ± 0.16; for TGQYMYKWSGLRWSYGGTFA it is “inactive”.
Take SYLFYMHSSVLGSLMGQRDH: the amyloid nucleation score result is “inactive”.
Take DTGDCVPGVLSRYLMIWDG: the amyloid nucleation score result was “inactive”.
For CKCVCNGAKDRFST the value was “inactive”; for DSYDLYIVD, “inactive”; for LTYHWNVVQLTLGNCFSGWG, 2.55 ± 0.059.
With IPLDRMCFFSMK, the amyloid nucleation score result was “inactive”.
Turning to KVCVLVDMHSGHTVHWGLMC, the amyloid nucleation score entry is “inactive”.
VPGCA: the amyloid nucleation score was -0.075 ± 1.1.
The figure for IFNLHWDTMLSIHMSIDALR is 1.91 ± 0.1; for YHCWSDLDKSLELLSQLMFR it is “inactive”; for STMDRSVKVVGPSSRPEGSV it is “inactive”.
The entry for VEPRWNRLVGNHVCSFDGNV is “inactive”; for CMPFMR it is “inactive”; for LRWFAFSKSNIALGL it is “inactive”.
The figure for MAGCAMRVRSYMGMKSHSEC is -0.353 ± 0.74; for FVKCFNGAFWNEGPFCYLCG it is 0.331 ± 0.32; for VGRNECARRMVLRKWWLYLV it is “inactive”.
Consider VMRFYQPSTASLYGSLASPR, for which the amyloid nucleation score result is “inactive”.
For LEERLNFGKYAVGDGYTLV the value was “inactive”; for GTFNIDVEVMVYRAGLFKHV, “inactive”; for SLMSFRYLRTFKWRSMSILS, “inactive”.
For TRYIIMCPILCRSEMVLPVR the value was “inactive”.
The figure for LVNTCKNSFLVVLHF is 2.09 ± 0.065; for FVFIFWTLFGRSRVDVASNM it is “inactive”.
In the case of VRWSWSMFVVYNSVES, the amyloid nucleation score result was “inactive”.
On to EPNVFSSLGILNINVVALWL, for which the amyloid nucleation score was 0.98 ± 0.2.
VPLPEGFHNRTSNCIFFINE yielded an amyloid nucleation score of 0.932 ± 0.12.
As to VVINHYMNHIAEHTDSLRGG, the amyloid nucleation score amounted to 1.57 ± 0.075.
Consider HARFTDQKTTPIWCTSVFKK, for which the amyloid nucleation score result was “inactive”.
For CWSRMNSVDAIYK, the amyloid nucleation score result was “inactive”.
AASRMLWPGWNIRPSDAVVE: the amyloid nucleation score entry was “inactive”.
Turning to CMFLGSELCWRRPRGS, the amyloid nucleation score was found to be 0.443 ± 0.32.
As for QRYVLSCRALTGDTCWRKSG, the amyloid nucleation score result is “inactive”.
Regarding LIQDFTSSGRI, the amyloid nucleation score result was “inactive”.
NIVQYVWVDDWVFRCRCGAK yielded an amyloid nucleation score of 3.15 ± 0.069.
For PFLCFRIYFSACWINLTLNL, the amyloid nucleation score amounted to 1.78 ± 0.086.
As for VGAKRFPYVYWAYGSYVFAD, the amyloid nucleation score result is “inactive”.
